Assay results published in patent publication US20230044825A1 (CZ BIOHUB SF, published 2023).

Target: ATXN2 (UniProt Q99700 1-1313, limits assumed)
Assay: fluorescence microscopy, co-localization in cells

Sequence of ATXN2 (Q99700 whole entry): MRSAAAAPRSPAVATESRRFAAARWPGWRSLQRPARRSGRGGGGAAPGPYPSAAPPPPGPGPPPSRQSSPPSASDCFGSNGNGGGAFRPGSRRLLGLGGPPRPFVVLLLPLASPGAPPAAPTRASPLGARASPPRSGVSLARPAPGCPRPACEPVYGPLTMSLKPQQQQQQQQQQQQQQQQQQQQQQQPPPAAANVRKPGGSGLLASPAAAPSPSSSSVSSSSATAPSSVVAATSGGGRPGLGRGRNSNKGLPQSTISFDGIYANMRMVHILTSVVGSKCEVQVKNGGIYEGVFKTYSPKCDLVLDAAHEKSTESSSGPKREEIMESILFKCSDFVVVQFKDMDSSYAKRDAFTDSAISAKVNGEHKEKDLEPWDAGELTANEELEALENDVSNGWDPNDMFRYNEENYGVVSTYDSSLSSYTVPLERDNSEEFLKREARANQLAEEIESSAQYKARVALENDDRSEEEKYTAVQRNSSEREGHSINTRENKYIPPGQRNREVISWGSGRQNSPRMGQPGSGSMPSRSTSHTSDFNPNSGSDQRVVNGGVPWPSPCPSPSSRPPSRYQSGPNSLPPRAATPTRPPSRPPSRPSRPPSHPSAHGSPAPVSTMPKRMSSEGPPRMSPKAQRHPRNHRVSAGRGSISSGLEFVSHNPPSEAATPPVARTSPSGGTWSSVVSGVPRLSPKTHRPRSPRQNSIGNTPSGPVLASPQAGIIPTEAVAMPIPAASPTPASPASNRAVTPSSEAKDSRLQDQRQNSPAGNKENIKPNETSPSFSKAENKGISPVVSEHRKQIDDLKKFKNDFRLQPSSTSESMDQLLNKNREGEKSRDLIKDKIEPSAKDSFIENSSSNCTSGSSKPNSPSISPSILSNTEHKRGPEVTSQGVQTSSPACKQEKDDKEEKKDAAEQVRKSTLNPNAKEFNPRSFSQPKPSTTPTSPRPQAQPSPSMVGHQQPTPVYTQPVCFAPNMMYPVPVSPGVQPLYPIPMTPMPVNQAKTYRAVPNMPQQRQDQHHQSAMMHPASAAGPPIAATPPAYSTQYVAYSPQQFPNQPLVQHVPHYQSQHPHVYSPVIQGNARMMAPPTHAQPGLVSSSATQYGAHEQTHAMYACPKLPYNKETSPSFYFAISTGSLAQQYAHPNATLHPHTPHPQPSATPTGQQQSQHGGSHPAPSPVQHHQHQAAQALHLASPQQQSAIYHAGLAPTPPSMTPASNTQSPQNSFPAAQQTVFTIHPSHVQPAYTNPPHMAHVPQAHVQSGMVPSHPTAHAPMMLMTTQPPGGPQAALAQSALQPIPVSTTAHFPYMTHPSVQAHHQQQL

B1: GFP-PopTag (other)
chain: GGGGSGGGGSGGGGSGGGGSEVAEQLVGVSAASAAASAFGSLSSALLMPKDGRTLEDVVRELLRPLLKEWLDQNLPRIVETKVEEEVQRISRGRGA
notes: also called GFP-PopTag condensates; not shown: GFP; constructs subcloned into pcDNA3.1+N-eGFP
  binding result: no binding
